Measured values taken from patent publication US20220153847A1 (Chugai, published 2022).
Substitutions are numbered along the chain they refer to.

T1: HLA-DQ6.3 on Ba/F3 cells (human, UniProt P01920 33-230, limits assumed)
T1 construct: whole, on cells; also called Ba/F3-HLA-DQ6.3
T1 MHC II alpha: not shown
T1 MHC II beta: not shown

T2: HLA-DQ5.1 on Ba/F3 cells (human, limits assumed)
T2 construct: whole, on cells; also called Ba/F3-HLA-DQ5.1
T2 MHC II alpha: not shown
T2 MHC II beta: not shown

T3: HLA-DR on Ba/F3 cells (human, UniProt P01903 26-216; P79483 30-227, limits assumed)
T3 construct: whole, on cells; also called Ba/F3-HLA-DR
T3 MHC II alpha: not shown
T3 MHC II beta: not shown

T4: HLA-DQ8 on Ba/F3 cells (human, UniProt P01909 24-216; P01920 33-230, limits assumed)
T4 construct: whole, on cells; also called Ba/F3-HLA-DQ8
T4 MHC II alpha: not shown
T4 MHC II beta: not shown

T5: HLA-DQ7.3 on Ba/F3 cells (human, UniProt P01909 24-216; P01920 33-230, limits assumed)
T5 construct: whole, on cells; also called Ba/F3-HLA-DQ7.3
T5 MHC II alpha: not shown
T5 MHC II beta: not shown

T6: HLA-DQ2.2 on Ba/F3 cells (human, UniProt P01909 24-216, limits assumed)
T6 construct: whole, on cells; also called Ba/F3-HLA-DQ2.2
T6 MHC II alpha: not shown
T6 MHC II beta: not shown

B1: DQN0344xx//DQN0385ee (bispecific antibody, human IgG1, kappa)
heavy 1: QSLEESGGGLVKPGGTLTLTCTASGFSFSSSYWMCWVRQAPGKGLEWVACVYGGSDTTYYASWTKGRFTISKGSSTTVALQVTSLTAADTATYFCARDPLNYYYYGELNLWGPGTLVTVSSASTKGPSVFPLAPSSKSTSGGTAALGCLVKDYFPEPVTVSWNSGALTSGVHTFPAVLQSSGLYSLSSVVTVPSSSLGTQTYICNVNHKPSNTKVDKRVEPKSCDKTHTCPPCPAPELRRGPSVFLFPPKPKDTLMISRTPEVTCVVVDVSHEDPEVKFNWYVDGVEVHNAKTKPREEQYNSTYRVVSVLTVLHQDWLNGKEYKCKVSNKALPAPIEKTISKAKGQPREPQVYTLPPSREEMTKNQVSLTCLVKGFYPSDIAVEWESNGQPENNYKTTPPYLDSDGSFFLYSKLTVDKSRWQQGNVFSCSVMHEALHNHYTQESLSLSP
light 1: AVVLTQTASPVSAAVGGTVTIRCQATENIYSGLAWYQQKPGQPPKVLIYYVSTLASGVPSRFKGSGSGTEYTLTISGVQCDDAATYYCQTYHDISNVTFGGGTKVEIKRTVAAPSVFIFPPSDEQLKSGTASVVCLLNNFYPREAKVQWKVDNALQSGNSQESVTEQDSKDCTYSLSSTLTLSKADYEKHKVYACEVTHQGLSSPVTKSFNRGEC
heavy 2: QEQLEESGGDLVKPGASLTLTCTASGFSFYSSYWICWVRQAPGKGLEWIACIDTGSGSIDYASWVNGRFTISKTSSTTVTLQMTSLTVADTATYFCARDIGIDYNFWGPGTLVTVSSASTKGPSVFPLAPSSKSTSGGTAALGCLVKDYFPEPVTVSWNSGALTSGVHTFPAVLQSSGLYSLSSVVTVPSSSLGTQTYICNVNHKPSNTKVDKRVEPKSCDKTHTCPPCPAPELRRGPSVFLFPPKPKDTLMISRTPEVTCVVVDVSHEDPEVKFNWYVDGVEVHNAKTKPREEQYNSTYRVVSVLTVLHQDWLNGKEYKCKVSNKALPAPIEKTISKAKGQPREPQVYTLPPSRKEMTKNQVSLTCLVKGFYPSDIAVEWESNGQPENNYKTTPPYLDSDGSFFLYSKLTVDKSRWQQGNVFSCSVMHEALHNHYTQKSLSLSP
light 2: AFELTQTPSFVEAAVGGTVTIKCQATQSISSYLNWYQQKPGQPPKLLIYYASTLASGVPSRFKGSGSGTEFSLTISGVECADAATYYCHYGISYVSFGGGTKVEIKRTVAAPSVFIFPPSDEQLKSGTASVVCLLNNFYPREAKVQWKVDNALQSGNSQESVTEQDSKDCTYSLSSTLTLSKADYEKHKVYACEVTHQGLSSPVTKSFNRGEC
B2: DQN0385ee//IC17 (bispecific antibody, human IgG1, kappa)
heavy 1: B1 heavy 2 with K356E, K439E
light 1: B1 light 2
heavy 2: QVQLQQSGPQLVRPGASVKISCKASGYSFTSYWMHWVNQRPGQGLEWIGMIDPSYSETRLNQKFKDKATLTVDKSSSTAYMQLSSPTSEDSAVYYCALYGNYFDYWGQGTTLTVSSASTKGPSVFPLAPSSKSTSGGTAALGCLVKDYFPEPVTVSWNSGALTSGVHTFPAVLQSSGLYSLSSVVTVPSSSLGTQTYICNVNHKPSNTKVDKRVEPKSCDKTHTCPPCPAPELRRGPSVFLFPPKPKDTLMISRTPEVTCVVVDVSHEDPEVKFNWYVDGVEVHNAKTKPREEQYNSTYRVVSVLTVLHQDWLNGKEYKCKVSNKALPAPIEKTISKAKGQPREPQVYTLPPSRKEMTKNQVSLTCLVKGFYPSDIAVEWESNGQPENNYKTTPPYLDSDGSFFLYSKLTVDKSRWQQGNVFSCSVMHEALHNHYTQKSLSLSP
light 2: DIQMTQSSSSFSVSLGDRVTITCKASEDIYNRLAWYQQKPGNAPRLLISGATSLETGVPSRFSGSGSGKDYTLSITSLQTEDVATYYCQQYWSTPYTFGGGTKLEVKRTVAAPSVFIFPPSDEQLKSGTASVVCLLNNFYPREAKVQWKVDNALQSGNSQESVTEQDSKDSTYSLSSTLTLSKADYEKHKVYACEVTHQGLSSPVTKSFNRGEC

Legend:
HLA-DQ6.3 on Ba/F3 cells = biological target: T1, HLA-DQ6.3 on Ba/F3 cells; test: FACS on Ba/F3-HLA-DQ6.3 cells, single antibody concentration, goat F(ab')2 anti-human IgG-PE
HLA-DP on Ba/F3 cells = biological target: T7, HLA-DP on Ba/F3 cells (human, UniProt P20036 29-222; P04440 30-225, limits assumed); test: FACS on Ba/F3-HLA-DP cells, single antibody concentration, goat F(ab')2 anti-human IgG-PE
T7 construct: whole, on cells; also called Ba/F3-HLA-DP

HLA-DQ5.1 on Ba/F3 cells = biological target: T2, HLA-DQ5.1 on Ba/F3 cells; test: FACS on Ba/F3-HLA-DQ5.1 cells, single antibody concentration, goat F(ab')2 anti-human IgG-PE
HLA-DR on Ba/F3 cells = biological target: T3, HLA-DR on Ba/F3 cells; test: FACS on Ba/F3-HLA-DR cells, single antibody concentration, goat F(ab')2 anti-human IgG-PE
[1] = biological target: DQ2.5/alpha 1b gliadin peptide on IHW9023 cells (human); test: cell-based or functional assay
[2] = biological target: DQ2.5/gamma 1 gliadin peptide on IHW9023 cells (human); test: cell-based or functional assay
[3] = biological target: DQ2.5/gamma 4a gliadin peptide on IHW9023 cells (human); test: cell-based or functional assay
[4] = biological target: DQ2.5/alpha 1 gliadin peptide on IHW9023 cells (human); test: cell-based or functional assay
[5] = biological target: DQ2.5/BC hordein peptide on IHW9023 cells (human); test: cell-based or functional assay
[6] = biological target: DQ2.5/omega 2 gliadin peptide on IHW9023 cells (human); test: cell-based or functional assay
[7] = biological target: DQ2.5/omega 1 gliadin peptide on IHW9023 cells (human); test: cell-based or functional assay
[8] = biological target: DQ2.5/alpha 2 gliadin peptide on IHW9023 cells (human); test: cell-based or functional assay
[9] = biological target: T8, HLA-DQ2.5/33mer gliadin peptide complex on Ba/F3 cells (human); test: FACS, Ba/F3 cells; IC17=0%, DQN0139bb//IC17=100%;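 also: flow cytometry binding of anti-HLA-DQ antibodies at 5 µg/mL, incubated 30 min at room temperature with Ba/F3 lines presenting HLA-DQ/peptide complexes; antibody tested at 5 microgram/mL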
T8 construct: whole, on cells; also called Ba/F3-HLA-DQ2.5/33mer gliadin
Source text: (§1) The binding of anti-HLA-DQ antibodies to Ba/F3-HLA-DQ2.5, Ba/F3-HLA-DQ2.2, Ba/F3-HLA-DQ7.5, Ba/F3-HLA-DQ8, Ba/F3-HLA-DQ5.1, Ba/F3-HLA-DQ6.3, Ba/F3-HLA-DQ7.3, Ba/F3-HLA-DR, Ba/F3-HLA-DP, Ba/F3-HLA-DQ2.5/CLIP, Ba/F3-HLA-DQ2.5/HBV, Ba/F3-HLA-DQ2.5/Salmonella, Ba/F3-HLA-DQ2.5/TPO, Ba/F3-HLA-DQ2.5/M. bovis, Ba/F3-HLA-DQ2.5/alpha 1 gliadin, Ba/F3-HLA-DQ2.5/alpha 2 gliadin, Ba/F3-HLA-DQ2.5/gamma 1 gliadin, Ba/F3-HLA-DQ2.5/gamma 2 gliadin, Ba/F3-HLA-DQ2.5/omega 1 gliadin, Ba/F3-HLA-DQ2.5/omega 2 gliadin, Ba/F3-HLA-DQ2.5/BC hordein, Ba/F3-HLA-DQ2.5/alpha 3 gliadin, Ba/F3-HLA-DQ2.5/alpha 1b gliadin, Ba/F3-HLA-DQ2.5/gamma 4b gliadin, Ba/F3-HLA-DQ2.5/avenin 1, Ba/F3-HLA-DQ2.5/avenin 2, Ba/F3-HLA-DQ2.5/avenin 3, Ba/F3-HLA-DQ2.5/hordein 1, Ba/F3-HLA-DQ2.5/hordein 2, Ba/F3-HLA-DQ2.5/secalin 1, Ba/F3-HLA-DQ2.5/secalin 2, Ba/F3-HLA-DQ2.5/14mer 1, Ba/F3-HLA-DQ2.5/33mer gliadin, Ba/F3-HLA-DQ2.5/26mer gliadin, was tested. 5 microgram/mL of each of the anti-HLA-DQ antibodies was incubated with each cell line for 30 minutes at room temperature and washed with FACS buffer (2% FBS, 2 mM EDTA in PBS).

HLA-DQ8 on Ba/F3 cells = biological target: T4, HLA-DQ8 on Ba/F3 cells; test: FACS, Ba/F3 cells; IC17=0%, DQN0139bb//IC17=100%;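 also: flow cytometry binding of anti-HLA-DQ antibodies at 5 µg/mL, incubated 30 min at room temperature with Ba/F3 lines presenting HLA-DQ/peptide complexes; antibody tested at 5 microgram/mL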
Source text: as §1

HLA-DQ7.3 on Ba/F3 cells = biological target: T5, HLA-DQ7.3 on Ba/F3 cells; test: FACS, Ba/F3 cells; IC17=0%, DQN0139bb//IC17=100%;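 also: flow cytometry binding of anti-HLA-DQ antibodies at 5 µg/mL, incubated 30 min at room temperature with Ba/F3 lines presenting HLA-DQ/peptide complexes; antibody tested at 5 microgram/mL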
Source text: as §1

HLA-DQ2.2 on Ba/F3 cells = biological target: T6, HLA-DQ2.2 on Ba/F3 cells; test: FACS, Ba/F3 cells; IC17=0%, DQN0139bb//IC17=100%;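 also: flow cytometry binding of anti-HLA-DQ antibodies at 5 µg/mL, incubated 30 min at room temperature with Ba/F3 lines presenting HLA-DQ/peptide complexes; antibody tested at 5 microgram/mL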
Source text: as §1

HLA-DQ2.5 on Ba/F3 cells = biological target: T9, HLA-DQ2.5 on Ba/F3 cells (human, UniProt P01909 24-216, limits assumed); test: FACS, Ba/F3 cells; IC17=0%, DQN0139bb//IC17=100%
T9 construct: whole, on cells; also called Ba/F3-HLA-DQ2.5
Source text: as §1

HLA-DQ7.5 on Ba/F3 cells = biological target: T10, HLA-DQ7.5 on Ba/F3 cells (human, UniProt P01909 24-216; P01920 33-230, limits assumed); test: FACS, Ba/F3 cells; IC17=0%, DQN0139bb//IC17=100%
T10 construct: whole, on cells; also called Ba/F3-HLA-DQ7.5
Source text: as §1

[10] = biological target: HLA-DQ2.5/33mer gliadin peptide on IHW9088 cells (human); test: cell-based or functional assay

T7 sequence (P20036 29-222 limits assumed, chain 1 of 4, other chains not shown): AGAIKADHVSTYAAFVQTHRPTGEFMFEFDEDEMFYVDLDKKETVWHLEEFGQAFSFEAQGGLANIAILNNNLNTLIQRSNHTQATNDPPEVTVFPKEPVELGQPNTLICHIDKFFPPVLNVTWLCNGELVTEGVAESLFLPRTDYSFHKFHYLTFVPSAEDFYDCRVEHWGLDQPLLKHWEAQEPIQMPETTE
T7 sequence (P04440 30-225 limits assumed, chain 2 of 4, other chains not shown): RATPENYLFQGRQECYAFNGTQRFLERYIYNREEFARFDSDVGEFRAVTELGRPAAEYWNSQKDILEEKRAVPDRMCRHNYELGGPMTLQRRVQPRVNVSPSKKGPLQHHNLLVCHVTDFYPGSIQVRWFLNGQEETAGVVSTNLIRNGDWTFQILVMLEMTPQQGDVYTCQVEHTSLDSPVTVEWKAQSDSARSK

Binder | binding result (HLA-DQ6.3 on Ba/F3 cells) | binding result (HLA-DP on Ba/F3 cells) | binding result (HLA-DQ5.1 on Ba/F3 cells) | binding result (HLA-DR on Ba/F3 cells) | IC50, Jurkat NFAT-Luc T cell activation [1] [µg/mL] | IC50, Jurkat NFAT-Luc T cell activation [2] [µg/mL] | IC50, Jurkat NFAT-Luc T cell activation [3] [µg/mL] | IC50, Jurkat NFAT-Luc T cell activation [4] [µg/mL] | IC50, Jurkat NFAT-Luc T cell activation [5] [µg/mL] | IC50, Jurkat NFAT-Luc T cell activation [6] [µg/mL] | IC50, Jurkat NFAT-Luc T cell activation [7] [µg/mL] | IC50, Jurkat NFAT-Luc T cell activation [8] [µg/mL] | % MFI [9] [%] | % MFI (HLA-DQ8 on Ba/F3 cells) [%] | % MFI (HLA-DQ7.3 on Ba/F3 cells) [%] | % MFI (HLA-DQ2.2 on Ba/F3 cells) [%] | % MFI (HLA-DQ2.5 on Ba/F3 cells) [%] | % MFI (HLA-DQ7.5 on Ba/F3 cells) [%] | IC50 (read off the curve) [10] [microgram/mL]
B1 | no binding (tested: 5 microgram/mL) | no binding (tested: 5 microgram/mL) | no binding (tested: 5 microgram/mL) | no binding (tested: 5 microgram/mL) | 0.0594 | 0.0469 | 0.892 | 0.019 | 0.0331 | 0.00323 | 0.0177 | 0.000606 | 91.3 |  |  |  |  |  | 
B2 |  |  |  |  |  |  |  |  |  |  |  |  |  | 0.1 | 0.1 | 0.3 | 0.1 | 0.1 | ~0.06
